Source: the nanobody polyreactivity screen of Harvey et al. (2022)

Test: yeast display, Sf9 membrane polyspecificity reagent, FACS + sequencing; frameworks hold sequencing errors
Method in brief: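 Sorting gates, low and high (top ~1%), were placed on anti-HA fluorescence to track expression and on streptavidin fluorescence to track reagent binding. A clone's polyreactivity label is taken from the gate it came out of. The reagent was 10% biotinylated, detergent-solubilized Sf9 membrane, applied for 1 hour at 4 °C to galactose-induced yeast display cells.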

Row | Sequence | polyreactivity (PSR sort gate)
1 | QVQLVESGGGLVQAGGSLRLSCAASGYIFITYAMGWYRQAPGKERELVAAISRRGGRTYYADSVKGRFTISRDNAKNTVYLQMNSLKPEDTAVYYCAADPATSVYGGLNYWGQGTQVTVSS | high polyreactivity
2 | QVQLVESGGGLVQAGGSLRLSCAASGRIFPGYAMGLYRQAPGKERELVAAISKGGGSTSYADSVKGRFTISRDNAKNTVYFQMNSLKPEDTAVYFCAARQAWRWTYDYWGQGTQVSVSS | high polyreactivity
3 | QVQLVESGGGLVQAGGSLRLSCAASGTIFYIYAMGWYRQAPGKERELVAAITWRGGRTYYADSVKGRFTISRDNAKNTVYLQMNSLKPEDTAVYYCAALYANYYYRYEYWGQGTQVTVSS | high polyreactivity
4 | QVQLVESGGGLVQAGGSLRLSCAASGSTFDYYAMGWYRQAPGKERELVAAITSTGSTYYADSVKGRFTISRDNAKNTVYLQMNSLKPEDTAVYYCAADDIYKYYQYYAFPYYRYDYWGQGTQVTVSS | low polyreactivity
5 | QVQLVESGGGLVQAGGSLRLSCAASGSTFSYYDMGWYRQAPGKERELVAAISWNGGTTYYADSVKGRFTISRDNAKNTVYLQMNSLKPEDTAVYYCAATWDFYWAPDDSWGQGTQVTVSS | low polyreactivity
6 | QVQLVESGGGLVQAGGSLRLSCAASGSTFRTNAMGWYRQAPGKERELVARIRYSVGSTYYADSVKGRFTISRDNAKNTVYLQMNSLKPEDTAVYYCAAENQRVGTFREHDSWGQGTQVTVSS | low polyreactivity
7 | QVQLVESGGGLVQAGGSLRLSCAASGRTFTYYGMGWYRQAPGKERELVAAISGGGDTNYADSVKGRFTISRDNAKNTVYLQMNSLKPEDTAGYYCAAKRRYYWDYWFYEYDYWGQGTQVTVSS | low polyreactivity
8 | QVQLVESGGGLVQARGSLRLSSAASGSTFVVNAMGWYRQAPGKERELVAAITQSGGSTFYADSVKGRFTISRVNAKNTVYLQMNSLQAEDTAVYYWGQGTQVTVSS | low polyreactivity
9 | QVQLVESGGGLVQAGGSLRLSCAASGRTFDNYAMGWYRQAPGKERELVAAISSSGGRTYYADSVKGRFTISRDNAKNTVYLQMNSLKPEDTAVYYCAAVWPVYRTHPGMDYWGQGTQVTVSS | high polyreactivity
10 | QVQLVESGGGLVQAGGSLRLSCAASGLSFTFGYAMGWYRQAPGKERELVASISSSGGNTYYADSVKGRFTISRDNAKNTVYLQMNSLKPEDTAVYYCAVYSHRRNMNYWGQGTQVTVSS | high polyreactivity
11 | QVQLVESGGVLVQAGCSLRLSCAASGSTFYYNAMGWYRQAPRKERELVARISRSGGSTYADSVKGRFTISRDNAKNTVYLQMNSLKPEDTAVYYCYADAYGTPEFTSYAVRYDYWGQGTQVTVSS | low polyreactivity
12 | QVQLVESGGGLVQAGGSLRLSCAASGRIFSLYAMGWYRQAPGKERELVAAISRGGSTYYADSVKGRFTISRDNAKNTVYLQMNSLKPEDTAVYYCAAAPDYRAEYDYWGQGTQVTVSS | low polyreactivity
13 | QVQLVDSGGGLVQAGGSLRLSCAASGRTIATYTQGWYRHAPGKERELVAAISKSGGSTYYADSVKGRFTISRDNAKNTVYLQMNSLKTEDTAVYYCAKRRSGNVRKYDYWGQGTQVTVSS | high polyreactivity
14 | QVQLVESGGGLVQAGGSLRLSCAASGSIFSQYAMGWYRQAPGKERELVAAITYGGGSTYYADSVKGRFTISRDNAKNTVYFQMNSLKPEDTAVYYCAKEFKYWGYPYDYWGQGTQVTVSS | low polyreactivity
15 | QVQRVESGGGLVQAGGSLRLSCAASGRTFYPNAMGWSRQAPGKERELVADITYSGASTYYADSVKGRFTISRDNAKNTVYLQMNSMKPEDTAVYYCAKVYGQMVSGGYVTRYDFWGQGTQVTVSS | low polyreactivity
16 | QVHLVDSGGRLVQAGGSLRLSCSASGNNFPGYAMGLYRQAPGKEREFVATITSNDGTTYYADSVKGRFTISRDNAMNTFFLQMNSLKPEDTAVYYCASVVRQYGFDYLGQGTQVTVSS | low polyreactivity
17 | QVQLVESGGGLVQAGGSLRLSCAASGFTFNSYAMGWYRQAPGKERELVAAITWRGGSTYADSVKGRFTISRDNAKNTVYLQMNSLKPEDTAVYYCNAVSDVKRYDYWGQGTQVTVSS | high polyreactivity
18 | QVQLVESGGGLVQAGGSLRLSCAASGFILDNYAMGWYRQAPGKERELVAAISGSGGSTFYADSVKGRFTISRDNAKNTVYLQMNSLKSEDTAVYYCNRDRLLRQYDYWGQGTQVTVSS | high polyreactivity
19 | QVQLVESGGGLVQAGGSLRLSCAASGLTLFRNAMGWYRQAPGKERELVAAISSGGSTYYADSVKGRFTISRDNAKNTVYLQMNSLKPEDTAVYYCATDSVSPVEEEDYWGQGTQVTVSS | low polyreactivity
20 | QVQLVESGGGLVQAGGSLRLSCAASGRTFHRYVMGWYRQAPGKERELVAAISKSGGRTYYADSVKGRFTISRDNAKNTVYLQMNSLKPEDTAVYYYNARTAAGALYDYWGQGTQVTVSS | high polyreactivity
21 | QVQLVESGGGLFQAGGRLRLSCAASGRNCNAYTMGWYRQAPGKERELVAAISRRGGSTYYADSVKGRFTISRDNAQNTVSLQMNSLNPEDTAVYYCATKSQYDYDYWGQGTQVTVSS | high polyreactivity
22 | QVQLVESGGGLVQAGGSLRLSCAASGLIFVAFAMGWYRQAPGKERELVAAISRSGGSTYYADSVKGRFTISRDNAKNTVYLQMNSLKPEDTAVYYCAKYYGARHVDDDYWGQGTQVTVSS | high polyreactivity

Row | Sequence | polyreactivity (PSR sort gate)
23 | QVQLVESGGGLVQAGGSLRLSCAASGSIFGGNTMGWYRQAPGKERELVAAISWSGGRTYYADSVKGRFTISRDNAKNTVYLQMNSLKPEDTAVYYCAATFRGVLGWYHYEYWGQGTQVTVSS | high polyreactivity
24 | QVQLVESGGGLVQAGGSLRLSCAASGITFVANAMGWYRQAPGKERELVAGITQTGGSTYYADSVKGRFTISRDNAKNTVYLQMNSLKPEDTAVYYCAATYRRLRYGKLYYYWGQGTQVTVSS | high polyreactivity
25 | QVQLVESGGGLVQAGGSLRLSCAASGRTFWRYAMGWYRQAPGKERELVARISWRGGSTNYADSVKGRFTISRDNAKITVYVQMNSLKAEDTAVYYCAADNSRYFLTGYDYWGQGTQVTVSS | low polyreactivity
26 | QVQLVESGVGLVQARGSLPLSCAASGSIFYYYVMGWYRQAPGKERELVAAIRSSGTSTYYADSVKGRFTISRDNAKNTVYLQRNSLKPEDTAVYYCNRARSSSRYDYWGQGTQVTVSS | low polyreactivity
27 | QVQLVESGGGLVQAGGTLRLSCAASGGIIAINAMVWYRQAPGKERELVAAISWGDGITYYADSVKGRFTISRDNAKNTVYLQMNSLKPEDTAVYYCAADEDEYRGGDETWGQGSQVTVSS | low polyreactivity
28 | QVQLVESGGGLVQAGGSLRLTCAASGFTFSPNAMGWYRQAPGKERELVAAIDWSGDRTYYADSVKGRFTISRDNAKNTVYLQMNSLKPEDTAVYYCNVVGRSPGDYSYYYSGQGTQVTVSS | low polyreactivity
29 | QVQLVESGGGLVQAGGSLRLSCAASGRTFYFNTLGWERQAPGKERELVAAISSGVNTYYADSVKGRFTISRDNAKTTVYLQMNSLKPEDTAVYYCNADYIHTGDYLWYFLYDYWGQGTQVTVSS | high polyreactivity
30 | QVQLVESGVGLVQAGGTLRISCAASGRISRGYAMGWYRQAPGKERELVAAISRRGDSTYYADSVKGRFTISRDNAKYTVYLQMNSLKPEDTAVYYCAARNGGRYAAGLDYWGQGTHVTVSS | high polyreactivity
31 | QVQLEESGGGLVQAGGSLRLSCAASGSNAMGWYRQAPGKERELVAVITSRGGSTYYADSVKGRFTISRDNAKNTVYLQMNSLKPEDTAVYYCAKAWYVRGTWSVHVRYGYWGQGTQVTVSS | high polyreactivity
32 | QVQLVESGGGLVQAGGSLRLSCAASGRIFFRYAMGWYRQAPGKEREFVAAISCTGGSTYYADSVKGRFTISRDNAKNTVYLQMNSLKPEDTAVYYCAASVVSRPTYYAYYYWGQGTQVTVSS | high polyreactivity
33 | QVQLVESGGGLVQAGGSLRLICAASGRIFTYNGMGWYRQAPGKERELVAAISSGGSTYADSVKGRFTISRDNAKNTVYLQMNSLKPEDTAVYYCAAVKGYQGSSYQRVDWEGDYWGQGTQVSVSS | low polyreactivity
34 | QVQRVESGGGLVQAGGSLRLSCAASGRNSQFYDMGWYRQAPGKERELVATISGGASTNYADSVKGRFTISRDNAKNTVYLQMNSLKPEDTAVYYCARAGRSWDTLYKYYLEHDYWGQGTQVTVSS | low polyreactivity
35 | QVQLVESGGGLVQAGGSLRLSCAASGGTFDVYAMGWYRQAPGKERELVAAISIGGSTYYADSVKGRFTISRDNAKNTVSLQMNSLKPEDTAVYYCAADVNSRYSWRRWYAYDYWGQGTQVTVSS | high polyreactivity
36 | QVQLVESGGGLVQAGGSLRLSCAASGSIFSWYTMGWYRQAPGKERELVARITTSGGTSTYYADSVKGRFTISRDNAKNTVYLQMNSLKPEDTAVYYCAADSPTSLYEYWGQGTQVTVSS | high polyreactivity
37 | QVQLVESGGGIVQAGGSLRLSCAASGSIFYAYAMGWYRQAPGKERELVAAINRGDSTTYADSVKGRITISRDNAKNTVYLQMNSLKPEDTAVYYCAKSRPSRKYYAGVTGQGDYWGQGTQVTVSS | low polyreactivity
38 | QVQLVESGGGLVQAGGSLRLSCAASGRIFAWYTMGWYRQAPGKERELVAAISWNGGRTYYADSVKGRFTISRDNAKNTVYLQMNSLKPEDTAVYYCNADWYWRVYWGQGTQVTVSS | high polyreactivity
39 | QVQLVESGGGLVQAGGSLRLSCAASGITFVHYAMGWYRQAPGKERELVAAISSGGGSTYYADSVKGRFTLSRDHAKNTGNLQMHSLNPEDTAVDNCAAYVLPYGEYDYWGQGTQVTVSS | low polyreactivity
40 | QVQLVESGGGLVQAGGSLRLSCAASGLIFGGYTMGWYRQAPGKERELVAAIDSGGSTKYADSVKGRFTISRDNAKNTVYLQMNSLKPEDTAVYYCAARDYYAWRYRYHHEVSEFDYWGQGTHVTVSS | low polyreactivity
41 | EEELVESGGGLVQAGGSLRLTCAASGFIFAYNAMGWYRQAPGKEREFVAAISRSGGSTYYADSVKGRFTISRDNAKNTVYLQMNSLKPEDTAVYYCAARRSVGGYGYWGQGTQVTVSS | high polyreactivity
42 | QVQLVESGGGLVQAGGSLLLICAASGITFWSYAMGWYRQAPGKERELVAAISSTGSTNYADSVKGRFTISRDNAKNTVYLQMNSLKPEDTAVYYCAAEYTFWWSRTGKYYYWGQGTQVTVSS | high polyreactivity
43 | QDQLVETGGGLVQAGCSLRLSCAASGRIFVPYAMGWYRQSHGKERELVAAISGSDGSTYYADSVKGRFTISRDNAKNTVYLQMNRLKPEDTAVYYCARLLIYAPPSGSHRYYPFDYWGQGTQETVSS | low polyreactivity
